Experimental data reported in patent publication US20070185028A1, “Compositions and methods for treatment of protein misfolding and protein aggregation diseases” (priority 2004, published 2007).

Assays:
Type in all cases: biochemical
[1] = molecular target: T1, β2-microglobulin (β2m) (Homo sapiens, UniProt P61769); assay: β2-microglobulin fibrillation ThT assay; details: 1:1 ratio
T1 construct: purchased MP Biomedical
Protocol: Addition of 5.8 μM αB crystallin peptides, ST, DR, LT, HG, and ER decreased the ThT fluorescence of β2m by 40-64%. When the concentration of the αB crystallin peptides was increased to 29 μM and 145 μM, no further decrease in ThT fluorescence was observed. The negative control peptide AT1 had no effect on β2m fibrillation even at a concentration as high as 290 μM. All five αB crystallin peptides inhibited β2m fibrillation at sub-stoichometric and stoichometric concentrations (5.8 μM and 29 μM).
The Thioflavin T (ThT) fluorescence of β2m in the presence of varying concentrations of αB crystallin peptides and controls was measured. […] When the concentration of the peptides was increased to 29 μM (1:1::peptide:β2m), the αB crystallin peptides decreased the ThT fluorescence by 35-65%. When the concentration of the peptides was increased further to 145 μM ([…]), the αB crystallin peptides decreased the ThT fluorescence by 13-27%. […] The formation and inhibition of β2-microglobulin fibrils was verified microscopically.
β2-microglobulin fibrillation ThT assays were performed as described previously. Raman et al., Biochem J 392:573-81, 2005; Ivanova et al., Proc Natl Acad Sci USA 101:10584-9, 2004. Peptides were dissolved to 2 mM in 0.25% DMSO and diluted accordingly, while β2-microglobulin was dissolved in 25 mM sodium acetate, 25 mM sodium phosphate, pH 2.4. For the 5:1::peptide:β2-microglobulin assay, 10 μL of 430 μM peptide was mixed with 10 μL of 86 μM β2-microglobulin, 7 μl of 25 mM sodium acetate, 25 mM sodium phosphate, pH 2.4 and 3 μL of 1 mM ThT. For the 1:1::peptide:β2-microglobulin assay, 10 μL of 86 μM peptide was mixed with 10 μL of 86 μM (2-microglobulin, 7 μl of 25 mM sodium acetate, 25 mM sodium phosphate, pH 2.4 and 3 μL of 1 mM ThT. For the 1:5::peptide:β2-microglobulin assay, 10 μL of 17.2 μM peptide was mixed with 10 μL of 86 μM β2-microglobulin, 7 μl of 25 mM sodium acetate, 25 mM sodium phosphate, pH 2.4 and 3 μL of 1 mM ThT. ThT fluorescence was measured using a Perkin Elmer Victor^3 V plate reader. Assays were performed in 384-well fluorescence plates in duplicates or triplicates. Samples were incubated at 37° C. ThT fluorescence was measured continuously for 180 minutes. The effect of the peptides and APS was calculated as percentage fibril formation relative to β2-microglobulin alone (100%) at the end of 180 minutes.

[2] = tested on: βH crystallin; assay: Chaperone assay, thermal aggregation of βH crystallin at 50° C.; details: 50:1 molar ratio of peptide:βH crystallin, sixty minutes, 340 nm
Protocol: (§1) The chaperone activity of the peptides was measured as their ability to protect against the thermal aggregation of three chaperone target proteins βH crystallin, ADH and CS in chaperone assays performed at 50° C. (FIG. 19). A non-interactive αB crystallin sequence 111HGKHEERQDE120 was used as the negative control in the chaperone assays (FIG. 19). Based on near and far UVCD, the three target proteins unfolded in the order: CS>>>ADH>>βH crystallin when they were heated at 50° C. for sixty minutes (FIGS. 15 and 16). The thermal aggregation of βH crystallin, ADH and CS was measured as light scattering at λ=340 nm in the presence and absence of each peptide. The chaperone activity of each peptide was calculated as percent protection in which the aggregation of each target protein in the absence of any peptides was set at 0% protection (FIG. 19). The interactive peptides […] and 131LTITSSLSDGV141 were effective inhibitors of aggregation of all three chaperone target proteins.
(§2) A (top left): thermal aggregation of chaperone target proteins βH crystallin, ADH and CS in the absence of peptides was measured as light scattering at λ=340 nm. Each target protein was heated at 50° C. for sixty minutes in the absence or presence of one of the peptides. […] The chaperone activity of each peptide was calculated as percent protection in which the aggregation of each target protein in the absence of any peptides was set at 0% protection. The ability of the 73DRFSVNLDVKHFS85, 131LTITSSLSDGV141 and 111HGKHEERQDE120 to protect against the thermal aggregation of βH crystallin (B: top right), ADH (C: bottom left) and CS (D: bottom right) were tested in vitro (vertical bars). […] A 10:1 molar ratio of peptide:target protein was sufficient in conferring significant protection against the aggregation of CS by 73DRFSVNLDVKHFS85 and 131LTITSSLSDGV141.

[3] = molecular target: amyloid beta (1-42) (Homo sapiens, UniProt P05067); assay: Cu+++-induced aggregation of amyloid beta (1-42), light scattering 360 nm; details: 100 mM Cu+++
Protocol: In vitro assays were also performed to measure the ability of the human αB crystallin derived peptides identified in Example 1 to inhibit aggregation of Cu^+++-induced amyloid beta (1-42) aggregation. Aggregation assays were performed using routine procedures, in the presence or absence of a synthesized peptide identified in Example 1, in the presence of 100 mM Cu^+++. Aggregation was measured spectrophotometrically as light scattering at a wavelength of 360 nm. Aggregated amyloid-beta was assigned a value of 100% aggregation and used to normalize aggregation in the presence of synthesize peptides.
Aggregation was measured spectrophotometrically as light scattering at a wavelength of 360 nm. Aggregated amyloid-beta was assigned a value of 100% aggregation and used to normalize aggregation in the presence of synthesize peptides. Aggregation was plotted as a bar graph with the standard error for duplicate experiments. The 1 st vertical bar is the scattering measured for aggregated amyloid-beta (100% aggregation) in the presence of 100 mM Cu^+++. The 2nd-4th vertical bars is the scattering from amyloid-beta in the presence of wild type recombinant human αB crystallin. The 5th-13th vertical bars are the scattering of amyloid-beta in the presence of the synthetic peptides, DRFSVNLDVKHFS or LTITSSLSDGV or HGKHEERQDE at selected concentrations. A prefix of 10× represents a 10:1 molar concentration of amyloid-beta to either wild type αB crystallin or its peptides. A prefix of 1× represents a 1:1 molar concentration of amyloid-beta to either wt αB crystallin or its peptides. A prefix of 0.1× represents a 1:10 molar concentration of amyloid-beta to either wt αB crystallin or its peptides.

[4] = molecular target: ADH (Equus caballus, UniProt P00327); assay: Chaperone assay, thermal aggregation of ADH at 50° C.; details: 50:1 molar ratio of peptide:ADH, sixty minutes, 340 nm
Chain of ADH (P00327 whole entry): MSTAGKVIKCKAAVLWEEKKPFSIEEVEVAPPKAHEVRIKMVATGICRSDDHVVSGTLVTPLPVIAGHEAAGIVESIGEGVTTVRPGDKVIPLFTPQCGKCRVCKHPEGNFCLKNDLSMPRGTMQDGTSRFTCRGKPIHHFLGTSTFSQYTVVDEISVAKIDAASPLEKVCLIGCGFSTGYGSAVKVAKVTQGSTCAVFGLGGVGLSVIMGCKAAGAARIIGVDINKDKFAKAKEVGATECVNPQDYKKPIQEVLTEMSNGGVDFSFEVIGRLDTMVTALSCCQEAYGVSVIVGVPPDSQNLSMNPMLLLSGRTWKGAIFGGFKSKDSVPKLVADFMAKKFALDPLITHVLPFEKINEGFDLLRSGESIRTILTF
Protocol: as §1, §2

T1 sequence (P61769 21-119): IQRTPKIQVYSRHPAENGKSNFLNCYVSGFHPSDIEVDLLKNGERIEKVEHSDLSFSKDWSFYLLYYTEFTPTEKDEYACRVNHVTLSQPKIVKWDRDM

Substance	inhibition of β2-microglobulin fibril formation, HG derived peptides [1] [%]	percent protection against thermal aggregation of βH crystallin [2]	prevention of Cu+++-induced aggregation of amyloid-beta ([3]; 1:1 and 1:10 molar ratio of amyloid-beta to peptide)	prevention of Cu+++-induced aggregation of amyloid-beta ([3]; 10:1 molar ratio of amyloid-beta to peptide)	percent protection against thermal aggregation of ADH [4]
EERQ	~100	–	–	–	–
LTITSSLSDGV	–	approximately 30%	equally effective	less effective	approximately 30%
RQDE	~100	–	–	–	–
